Source: paper PMC12521702 (2025)

Assays:
[1] = target: SARS-CoV-2 prototype (PT) RBD (SARS-CoV-2, UniProt P0DTC2); experiment: SPR
TNF = TNF (human, UniProt P01375); experiment: SPR
Sequence of TNF (P01375 77-233): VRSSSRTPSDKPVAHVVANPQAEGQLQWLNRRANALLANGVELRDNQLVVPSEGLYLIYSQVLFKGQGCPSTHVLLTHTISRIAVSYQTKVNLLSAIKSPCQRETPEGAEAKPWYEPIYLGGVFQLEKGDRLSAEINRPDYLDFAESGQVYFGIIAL

Row | Binder | Kd [1] | Kd (TNF)
1 | ACE2 (M)-Fc (Fc fusion) QSTIEEQAKFFLDYFNHEAEDLFYQSSLASWNYNTNITEENVQNMNNAGDKWSAFLKEQSTWAQMYPLQEIQNLTVKLQLQALQQNGSSVLSEDKSKRLNTILNTMSTIYSTGKVCNPDNPQECLLLEPGLNEIMANSLDYNERLWAWESWRSEVGKQLRPLYEEYVVLKNEMARANHYEDYGDYWRGDYEVNGVDGYDYSRGQLIEDVEHTFEEIKPLYEHLHAYVRAKLMNAYPSYISPIGCLPAHLLGDMWGQFWTNLYSLTVPFGQKPNIDVTDAMVDQAWDAQRIFKEAEKFFVSVGLPNMTQGFWEYSMLTDPGNVQKAVCHPTAWDLGKGDFRILMCTKVTMDDFLTAHHEMGHIQYDMAYAAQPFLLRNGANEGFHEAVGEIMSLSAATPKHLKSIGLLSPDFQEDNETEINFLLKQALTIVGTLPFTYMLEKWRWMVFKGEIPKDQWMKKWWEMKREIVGVVEPVPHDETYCDPASLFHVSNDYSFIRYYTRTLYQFQFQEALCQAAKHEGPLHKCDISNSTEAGQKLFNMLRLGKSEPWTLALENVVGAKNMNVRPLLNYFEPLFTWLKDQNKNSFVGWSTDWSPYADQSIKVRISLKSALGDKAYEWNDNEMYLFRSSVAYAMRQYFLKVKNQMILFGEEDVRVANLKPRISFNFFVTAPKNVSDIIPRTEVEKAIRMSRSRINDAFRLNDNSLEFLGIQPTLGPPNQPPVS | 0.274 nM | –
2 | ACE2 (M)-Fc-TNFR2 (Fc fusion) QSTIEEQAKFFLDYFNHEAEDLFYQSSLASWNYNTNITEENVQNMNNAGDKWSAFLKEQSTWAQMYPLQEIQNLTVKLQLQALQQNGSSVLSEDKSKRLNTILNTMSTIYSTGKVCNPDNPQECLLLEPGLNEIMANSLDYNERLWAWESWRSEVGKQLRPLYEEYVVLKNEMARANHYEDYGDYWRGDYEVNGVDGYDYSRGQLIEDVEHTFEEIKPLYEHLHAYVRAKLMNAYPSYISPIGCLPAHLLGDMWGQFWTNLYSLTVPFGQKPNIDVTDAMVDQAWDAQRIFKEAEKFFVSVGLPNMTQGFWEYSMLTDPGNVQKAVCHPTAWDLGKGDFRILMCTKVTMDDFLTAHHEMGHIQYDMAYAAQPFLLRNGANEGFHEAVGEIMSLSAATPKHLKSIGLLSPDFQEDNETEINFLLKQALTIVGTLPFTYMLEKWRWMVFKGEIPKDQWMKKWWEMKREIVGVVEPVPHDETYCDPASLFHVSNDYSFIRYYTRTLYQFQFQEALCQAAKHEGPLHKCDISNSTEAGQKLFNMLRLGKSEPWTLALENVVGAKNMNVRPLLNYFEPLFTWLKDQNKNSFVGWSTDWSPYADQSIKVRISLKSALGDKAYEWNDNEMYLFRSSVAYAMRQYFLKVKNQMILFGEEDVRVANLKPRISFNFFVTAPKNVSDIIPRTEVEKAIRMSRSRINDAFRLNDNSLEFLGIQPTLGPPNQPPVSGGGGSGGGGSGGGGSLPAQVAFTPYAPEPGSTCRLREYYDQTAQMCCSKCSPGQHAKVFCTKTSDTVCDSCEDSTYTQLWNWVPECLSCGSRCSSDQVETQACTREQNRICTCRPGWYCALSKQEGCRLCAPLRKCRPGFGVARPGTETSDVVCKPCAPGTFSNTTSSTDICRPHQICNVVAIPGNASMDAVCTSTSPTRSMAPGAVHLPQPVSTRSQHTQPTPEPSTAPSTSFLLPMGPSPPAEGSTGD | 0.258 nM | –
3 | TNFR2-Fc (Fc fusion) LPAQVAFTPYAPEPGSTCRLREYYDQTAQMCCSKCSPGQHAKVFCTKTSDTVCDSCEDSTYTQLWNWVPECLSCGSRCSSDQVETQACTREQNRICTCRPGWYCALSKQEGCRLCAPLRKCRPGFGVARPGTETSDVVCKPCAPGTFSNTTSSTDICRPHQICNVVAIPGNASMDAVCTSTSPTRSMAPGAVHLPQPVSTRSQHTQPTPEPSTAPSTSFLLPMGPSPPAEGSTGDFALPVGLIVGVTALGLLIIGVVNCVIMTQVKKKPLCLQREAKVPHLPADKARGTQGPEQQHLLITAPSSSSSSLESSASALDRRAPTRNQPQAPGVEASGAGEARASTGSSDSSPGGHGTQVNVTCIVNVCSSSDHSSQCSSQASSTMGDTDSSPSESPKDEQVPFSKEECAFRSQLETPETLLGSTEEKPLPLGVPDAGMKPS | – | 0.0418 nM
